# Read-outs that look alike come from different tables or passages of the source.
# T1: EDIII-DV1 (E protein domain III of dengue virus serotype DV-1) (dengue virus serotype DV-1, UniProt P17763 573-680)
# T1 construct: also called DENV-1; EDIII of DV-1
# T1 chain: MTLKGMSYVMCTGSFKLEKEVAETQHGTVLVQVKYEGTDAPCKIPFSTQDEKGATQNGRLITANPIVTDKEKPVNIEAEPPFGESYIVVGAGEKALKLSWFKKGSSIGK
# Columns and labels:
# [1] = target: T1, EDIII-DV1 (E protein domain III of …)
# [2] = target: T2, EDIII-DV3 (E protein domain III of dengue virus serotype DV-3) (dengue virus serotype DV-3, UniProt P27915 571-678)
# T2 construct: also called DENV-3; EDIII of DV-3
# [3] = target: T3, EDIII-DV4 (E protein domain III of dengue virus serotype DV-4) (dengue virus serotype DV-4, UniProt P09866 572-679)
# T3 construct: also called DENV-4
# [4] = target: T3, EDIII-DV4 (E protein domain III of …); remark: listed apart in the source
# [5] = target: T4, EDIII-DV2 (E protein domain III of dengue virus serotype DV-2) (dengue virus serotype DV-2, UniProt P14337 573-677)
# T4 construct: also called DENV-2; EDIII of DV-2
# [6] = target: T3, EDIII-DV4 (E protein domain III of …); remark: listed apart in the source
# [7] = target: T2, EDIII-DV3 (E protein domain III of …); remark: listed apart in the source
# [8] = target: T3, EDIII-DV4 (E protein domain III of …); remark: listed apart in the source
# T2 sequence (P27915 571-678, tags left off): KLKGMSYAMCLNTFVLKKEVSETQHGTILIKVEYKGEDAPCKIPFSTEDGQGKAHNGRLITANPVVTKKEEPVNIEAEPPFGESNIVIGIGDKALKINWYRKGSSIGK
# T4 sequence (P14337 573-677, tags left off): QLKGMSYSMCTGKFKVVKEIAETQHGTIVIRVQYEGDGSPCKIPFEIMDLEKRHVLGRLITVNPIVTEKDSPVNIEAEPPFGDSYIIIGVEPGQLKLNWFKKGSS
binder,measurement,setting,value
"antibody B48 (antibody, V domains shown, also called mAb B48) VH: QVQLVQSGAEVKKPGASVKVSCKAGFNIKDTYMSWVRQAPEQGLEWMGRIDPENGDTKYDPKLQGRVTMTADTSTNTAYMELRSLRSDDTAVYYCARGWEGFAYWGQGTLVTVSS VL: DIVMTQSPASLAVSLGERATISCRASENVDKYGNSFMHWYQQKPGQPPKLLIYRASELQWGVPDRFSGSGSGTDFTLTISSLQAEDVAVYYCQRSNEVPWTFGQGTKLEIK",Kd,[1],0.123 nM
same,Kd,[2],8 nM
same,Kd,[3],27.6 nM
same,Kd,[4],19.3 nM
"B48+InsE6 (antibody, V domains shown) VH: VQLVEQSGAEVKKPGASVKVSCKAGFNIKDTYMSWVRQAPEQGLEWMGRIDPENGDTKYDPKLQGRVTMTADTSTNTAYMELRSLRSDDTAVYYCARGWEGFAYWGQGTLVTVSS VL: DIVMTQSPASLAVSLGERATISCRASENVDKYGNSFMHWYQQKPGQPPKLLIYRASELQWGVPDRFSGSGSGTDFTLTISSLQAEDVAVYYCQRSNEVPWTFGQGTKLEIK",Kd,[4],26.9 nM
"antibody A48 (antibody, V domains shown) VH: QVQLVQSGAEVKKPGASVKVSCKASGFNIKDTYMSWVRQAPEQGLEWMGRIDPENGDTKYDPKLQGRVTMTADTSTNTAYMELRSLRSDDTAVYYCARGWEGFAYWGQGTLVTVSS VL: DIVMTQSPASLAVSLGERATISCRASENVDKYGNSFMHWYQQKPGQPPKLLIYRASELQWGVPDRFSGSGSGTDFTLTISSLQAEDVAVYYCQRSNEVPWTFGQGTKLEIK",Kd,[1],< 0.1 nM
same,Kd,[2],5.8 nM
"A48+V2L (antibody, V domains shown) VH: QLQLVQSGAEVKKPGASVKVSCKASGFNIKDVYMSWVRQAPEQGLEWMGRIDPENGDTKYDPKLQGRVTMTADTSTNTAYMELRSLRSDDTAVYYCARGWEGFAYWGQGTLVTVSS VL: DIVMTQSPASLAVSLGERATISCRASENVDKYGNSFMHWYQQKPGQPPKLLIYRASELQWGVPDRFSGSGSGTDFTLTISSLQAEDVAVYYCQRSNEVPWTFGQGTKLEIK",Kd,[4],21.3 nM
"A68 (A48 + A98V) (antibody, V domains shown) VH: QVQLVQSGAEVKKPGASVKVSCKASGFNIKDTYMSWVRQAPEQGLEWMGRIDPENGDTKYDPKLQGRVTMTADTSTNTAYMELRSLRSDDTAVYYCVRGWEGFAYWGQGTLVTVSS VL: DIVMTQSPASLAVSLGERATISCRASENVDKYGNSFMHWYQQKPGQPPKLLIYRASELQWGVPDRFSGSGSGTDFTLTISSLQAEDVAVYYCQRSNEVPWTFGQGTKLEIK",Kd,[5],< 0.1 nM
same,Kd,[2],3 nM
same,Kd,[3],13.1 nM
"antibody D148 (antibody, V domains shown) VH: QVQLVQSGAEVKKPGASVKVSCKASYFNIKDVYMSWVRQAPEQGLEWMGRIDPENGDTKYDPKLQGRVTMTADTSTNTAYMELRSLRSDDTAVYYCARGWEGFAYWGQGTLVTVSS VL: DIVMTQSPASLAVSLGERATISCRASENVDKYGNSFMHWYQQKPGQPPKLLIYRASELQWGVPDRFSGSGSGTDFTLTISSLQAEDVAVYYCQRSNEVPWTFGQGTKLEIK",Kd,[6],18 nM
"C128 (antibody, V domains shown) VH: QVQLVQSGAEVKKPGASVKVSCKASGFNIKDVYMSWVRQAPEQGLEWMGRIDPENGDTKYDPKLQGRVTMTADTSTNTAYMELRSLRSDDTAVYYCSRGWEGFAYWGQGTLVTVSS VL: DIVMTQSPASLAVSLGERATISCRASENVDKYGNSFMHWYQQKPGQPPKLLIYRASELQWGVPDRFSGSGSGTDFTLTISSLQAEDVAVYYCQRSNEVPWTFGQGTKLEIK",Kd,[7],0.63 nM
same,Kd,[8],18.7 nM
"antibody D128 (antibody, V domains shown) VH: QVQLVQSGAEVKKPGASVKVSCKASAWNIKDVYMSWVRQAPEQGLEWMGRIDPENGDTKYDPKLQGRVTMTADTSTNTAYMELRSLRSDDTAVYYCARGWEGFAYWGQGTLVTVSS VL: DIVMTQSPASLAVSLGERATISCRASENVDKYGNSFMHWYQQKPGQPPKLLIYRASELQWGVPDRFSGSGSGTDFTLTISSLQAEDVAVYYCQRSNEVPWTFGQGTKLEIK",Kd,[6],20.8 nM
"D178 (antibody, V domains shown) VH: QVQLVQSGAEVKKPGASVKVSCKAGFNIKDVYMSWVRQAPEQGLEWMGRIDPENGDTKYDPKLQGRVTMTADTSTNTAYMELRSLRSDDTAVYYCVRGWEGFAYWGQGTLVTVSS VL: DIVMTQSPASLAVSLGERATISCRASENVDKYGNSFMHWYQQKPGQPPKLLIYRASELQWGVPDRFSGSGSGTDFTLTISSLQAEDVAVYYCQRSNEVPWTFGQGTKLEIK",Kd,[7],1.05 nM
same,Kd,[8],4.67 nM
"B48+V2L (antibody, V domains shown) VH: QLQLVQSGAEVKKPGASVKVSCKAGFNIKDTYMSWVRQAPEQGLEWMGRIDPENGDTKYDPKLQGRVTMTADTSTNTAYMELRSLRSDDTAVYYCARGWEGFAYWGQGTLVTVSS VL: DIVMTQSPASLAVSLGERATISCRASENVDKYGNSFMHWYQQKPGQPPKLLIYRASELQWGVPDRFSGSGSGTDFTLTISSLQAEDVAVYYCQRSNEVPWTFGQGTKLEIK",Kd,[4],23.6 nM
"D168 (antibody, V domains shown) VH: QVQLVQSGAEVKKPGASVKVSCKASGYNIKDVYMSWVRQAPEQGLEWMGRIDPENGDTKYDPKLQGRVTMTADTSTNTAYMELRSLRSDDTAVYYCARGWEGFAYWGQGTLVTVSS VL: DIVMTQSPASLAVSLGERATISCRASENVDKYGNSFMHWYQQKPGQPPKLLIYRASELQWGVPDRFSGSGSGTDFTLTISSLQAEDVAVYYCQRSNEVPWTFGQGTKLEIK",Kd,[6],324 nM
"A48+InsE6 (antibody, V domains shown) VH: VQLVEQSGAEVKKPGASVKVSCKASGFNIKDVYMSWVRQAPEQGLEWMGRIDPENGDTKYDPKLQGRVTMTADTSTNTAYMELRSLRSDDTAVYYCARGWEGFAYWGQGTLVTVSS VL: DIVMTQSPASLAVSLGERATISCRASENVDKYGNSFMHWYQQKPGQPPKLLIYRASELQWGVPDRFSGSGSGTDFTLTISSLQAEDVAVYYCQRSNEVPWTFGQGTKLEIK",Kd,[4],19.5 nM
"antibody D108 (antibody, V domains shown) VH: QVQLVQSGAEVKKPGASVKVSCKASYWNIKDVYMSWVRQAPEQGLEWMGRIDPENGDTKYDPKLQGRVTMTADTSTNTAYMELRSLRSDDTAVYYCARGWEGFAYWGQGTLVTVSS VL: DIVMTQSPASLAVSLGERATISCRASENVDKYGNSFMHWYQQKPGQPPKLLIYRASELQWGVPDRFSGSGSGTDFTLTISSLQAEDVAVYYCQRSNEVPWTFGQGTKLEIK",Kd,[6],18.3 nM
"C41 (antibody, V domains shown) VH: VKLLEQSGAELVKPGASVRLSCTASGFNIKDVYMSWVKQRPEQGLEWIGRIDPENGDTKYDPKFQGKATITADTSSNTAYLHLSSLTSGDTAVYYCSRGWEGFAYWGQGTLVTVSA VL: ELVMTQTPASLAVSLGQRATISCRASENVDKYGNSFMHWYQQKAGQPPKLLIYRASELQWGIPARFSGSGSRTDFTLTINPVEADDVATYFCQRSNEVPWTFGGGTKLEIK",Kd,[4],2.56 nM
